Source: patent publication US20120270800A1 (published 2012)
Positions of bridges follow the written chain, without caps; N, C: chain ends. Non-standard residues stand in square brackets, D forms with d. No end group written: not given here. S5 = C=CCCC[C@](C)(N)C(=O)O; βAla = NCCC(=O)O

Biological target: mSin3
Assay: fluorescence polarization

[βAla]VRRRI[S5]MLL[S5]AANYLER (staple 7-11; also: FITC-conjugated in the assay, site not given here) [SID2]
Kd: 12 nM
